The results in this text go back to the Human Domainome abundance scans (Beltran et al. 2025).

± gives the uncertainty stated by the source.

The labels stand for the following.
B1: Dynamin-binding protein, residues 146 to 206; numbered along this chain, Q6XZF7 (parent)
chain: SMGQARALMGLSAQLDEELDFREGDVITIIGVPEPGWFEGELEGRRGIFPEGFVELLGPLR
B2: CD2-associated protein, residues 109 to 169; numbered along this chain, Q9Y5K6 (parent)
chain: KKRQCKVLFEYIPQNEDELELKVGDIIDINEEVEEGWWSGTLNNKLGLFPSNFVKELEVTD

The variants in one data set derive from B1. The data set is described as follows: abundance fitness (aPCA) (normalised: wild type 0, dead -1); higher = more abundant; growth selection in yeast, the domain comes from the species named. Conditions: Homo sapiens.
With E55N, the abundance fitness was -0.939 ± 0.28. As for E55K, the abundance fitness was -0.253 ± 0.17. Same read-out and setting: to R61V belongs 0.019 ± 0.083. For the variant R61P, the abundance fitness was determined as 0.123 ± 0.22. With R61D, the abundance fitness was -0.053 ± 0.084. As for R61C, the abundance fitness was -0.234 ± 0.11.

For R61K, the abundance fitness turned out to be 0.47 ± 0.3. On to R61S, for which the abundance fitness is -0.017 ± 0.068. R61H: the abundance fitness was -0.153 ± 0.08. Still for that read-out and setting: to R61I belongs -0.135 ± 0.13. For the variant R61T, the abundance fitness is -0.046 ± 0.072.

As for R61N, the abundance fitness is -0.054 ± 0.077. Same read-out and setting: to R61Y belongs -0.148 ± 0.098; to R61G, -0.123 ± 0.096. Regarding R61E, the abundance fitness is -0.018 ± 0.15.

On to R61F, for which the abundance fitness was -0.363 ± 0.12. R61L: the abundance fitness stood at 0.336 ± 0.35. As to P50S, the abundance fitness is -0.674 ± 0.068. Regarding P50R, the abundance fitness is -0.068 ± 0.061.

For P50K, the abundance fitness is -0.212 ± 0.17.

As to P50G, the abundance fitness is -0.621 ± 0.072. On to P50I, for which the abundance fitness is -0.691 ± 0.082.

On to P50V, for which the abundance fitness was -1.02 ± 0.12. As to P50H, the abundance fitness was -0.333 ± 0.067. For the variant P50E, the abundance fitness was -0.509 ± 0.19. On the same count and under the same terms, the figure for P50F is -0.669 ± 0.09; for P50L it is -0.655 ± 0.089.

As for P50D, the abundance fitness is -0.797 ± 0.13. As for P50C, the abundance fitness is -0.93 ± 0.15. Consider P50Q, for which the abundance fitness is -0.314 ± 0.13. Take P50A: the abundance fitness is -0.736 ± 0.11. P50Y: the abundance fitness is -0.794 ± 0.11.

Turning to P50N, the abundance fitness is -0.371 ± 0.069. Still for that read-out and setting: to P50M belongs -0.38 ± 0.11; to E41W, -0.773 ± 0.13. Turning to E41Q, the abundance fitness was -0.267 ± 0.11. As to E41A, the abundance fitness is -0.32 ± 0.059. On the same count and under the same terms, to E41I belongs -0.073 ± 0.054; to E41V, -0.148 ± 0.039. As to E41M, the abundance fitness is -0.211 ± 0.093.

Regarding E41F, the abundance fitness is -0.6 ± 0.29. Turning to E41S, the abundance fitness is -0.806 ± 0.25. Turning to E41N, the abundance fitness is -0.608 ± 0.071.

On to G40P, for which the abundance fitness is -0.502 ± 0.095. With G40F, the abundance fitness is -0.901 ± 0.087. With G40K, the abundance fitness was -0.906 ± 0.16. With G40L, the abundance fitness is -0.762 ± 0.078. Consider G40Y, for which the abundance fitness is -0.604 ± 0.07. G40Q: the abundance fitness was -0.974 ± 0.26. For the variant G40E, the abundance fitness is -0.685 ± 0.15.

With R46Q, the abundance fitness was -0.571 ± 0.3. As for R46C, the abundance fitness is -0.303 ± 0.059. For the variant R46Y, the abundance fitness was -0.698 ± 0.36.

Regarding R45W, the abundance fitness is -0.958 ± 0.25. On the same count and under the same terms, to R45G belongs -0.961 ± 0.27; to F49W, -1.1 ± 0.24; to F49K, -0.655 ± 0.21. F49D: the abundance fitness was -0.74 ± 0.097. In the case of F38P, the abundance fitness was -0.994 ± 0.16.

F38W: the abundance fitness is -0.667 ± 0.11. Still for that read-out and setting: the figure for F38H is -1.08 ± 0.16. On the same count and under the same terms, to F38Q belongs -1.12 ± 0.29; to F38K, -0.503 ± 0.098; to G52M, 0.046 ± 0.23. For the variant G52W, the abundance fitness is -0.053 ± 0.21.

With G52L, the abundance fitness was -0.29 ± 0.31. On to G52I, for which the abundance fitness worked out at 0.04 ± 0.16. On the same count and under the same terms, the figure for G52R is 0.117 ± 0.18; for G52T it is -0.083 ± 0.15; for G52E it is -0.189 ± 0.25. On the same count and under the same terms, to G52A belongs 0.111 ± 0.11. For the variant G52Y, the abundance fitness is -0.064 ± 0.3. On to G52H, for which the abundance fitness came out at 0.404 ± 0.22. On to L60M, for which the abundance fitness is -0.062 ± 0.12.

Take L60P: the abundance fitness is -0.368 ± 0.19. Consider L60A, for which the abundance fitness is -0.387 ± 0.26. As to L60G, the abundance fitness is -0.176 ± 0.11. Turning to L60Y, the abundance fitness is -0.862 ± 0.39.

As to G44H, the abundance fitness is -0.665 ± 0.1. Take G44V: the abundance fitness was -0.884 ± 0.2. As for G44Q, the abundance fitness was -0.683 ± 0.32. Turning to L56R, the abundance fitness was -0.399 ± 0.12.

Take L56V: the abundance fitness was -0.152 ± 0.087.

In the case of L56I, the abundance fitness was -0.42 ± 0.13.

In the case of F53Y, the abundance fitness was found to be 0.059 ± 0.091. The same measure, in the same setting: to F53E belongs -0.486 ± 0.2; to W37H, -0.326 ± 0.074. On to W37M, for which the abundance fitness is -0.019 ± 0.075. Regarding W37S, the abundance fitness is -0.62 ± 0.16.

Turning to W37G, the abundance fitness was -0.652 ± 0.053. Turning to G47D, the abundance fitness was -0.804 ± 0.27. Consider G47Q, for which the abundance fitness is -0.861 ± 0.18. Still for that read-out and setting: to G47E belongs -0.962 ± 0.37; to G47K, -0.839 ± 0.45; to G47L, -0.696 ± 0.11.

In the case of G47I, the abundance fitness is -1.06 ± 0.35.

As to G47V, the abundance fitness is -0.719 ± 0.069. As for L42P, the abundance fitness is -0.5 ± 0.1. Still for that read-out and setting: to L42T belongs -0.769 ± 0.12; to L42K, -0.316 ± 0.14. In the case of L42D, the abundance fitness is -0.975 ± 0.15.

In the case of P59K, the abundance fitness is -0.889 ± 0.35. In the case of P59T, the abundance fitness was -0.685 ± 0.18. As to P59M, the abundance fitness was -0.386 ± 0.34. On the same count and under the same terms, to V54E belongs -0.81 ± 0.38; to V54I, -0.947 ± 0.24. Consider V54N, for which the abundance fitness is -0.674 ± 0.45. On to V54G, for which the abundance fitness was -0.708 ± 0.07. In the case of V54K, the abundance fitness is -0.671 ± 0.25. I48R: the abundance fitness came to 0.012 ± 0.11.

As to I48P, the abundance fitness is -0.651 ± 0.12. Regarding I48A, the abundance fitness was -0.777 ± 0.29.

Regarding I48V, the abundance fitness is -0.007 ± 0.041. For I48G, the abundance fitness is -1.01 ± 0.095. For the variant G58H, the abundance fitness is -0.23 ± 0.085. As for G58T, the abundance fitness was -0.079 ± 0.069.

Turning to G58Q, the abundance fitness was -0.013 ± 0.1. The same measure, in the same setting: to G58E belongs 0.082 ± 0.15. In the case of G36R, the abundance fitness is -0.709 ± 0.077. Consider G36Q, for which the abundance fitness was -0.797 ± 0.22. Turning to L57I, the abundance fitness is -0.176 ± 0.045. Take L57M: the abundance fitness is -0.251 ± 0.081. Take L57W: the abundance fitness was -1.03 ± 0.2. Still for that read-out and setting: the figure for L57Q is -0.258 ± 0.16; for L57H it is -0.629 ± 0.077; for L57E it is -0.695 ± 0.27. Consider L57R, for which the abundance fitness is -0.43 ± 0.053. L57D: the abundance fitness was -0.429 ± 0.063. On the same count and under the same terms, to L57T belongs -0.437 ± 0.055; to L57N, -0.375 ± 0.052; to L57V, -0.24 ± 0.044. In the case of L57P, the abundance fitness is -0.655 ± 0.085. L57A: the abundance fitness is -0.57 ± 0.068. Consider L57K, for which the abundance fitness is -0.585 ± 0.11.

As for L57Y, the abundance fitness is -0.578 ± 0.061. Take E51S: the abundance fitness was -0.053 ± 0.065. On the same count and under the same terms, the figure for E51N is -0.66 ± 0.15; for E51F it is -0.621 ± 0.32. For E51Q, the abundance fitness was -0.074 ± 0.18. Take E51P: the abundance fitness was -0.792 ± 0.33. As for E43M, the abundance fitness amounted to 0.06 ± 0.077. Still for that read-out and setting: to E43W belongs -0.747 ± 0.15. On to E43D, for which the abundance fitness came to 0.089 ± 0.06. On the same count and under the same terms, the figure for E43L is -0.527 ± 0.19.

For E39S, the abundance fitness is -0.339 ± 0.044. On the same count and under the same terms, the figure for E39R is -0.141 ± 0.051.

Variants of B2 are the subject of another data set. The description is as above. Conditions: Homo sapiens.
For the variant V7R, the abundance fitness is -0.193 ± 0.17. Turning to V7S, the abundance fitness was -0.399 ± 0.13. For the variant V7F, the abundance fitness was -0.826 ± 0.38. The same measure, in the same setting: the figure for V7D is -0.748 ± 0.39; for V7T it is -0.9 ± 0.31.

Consider V7P, for which the abundance fitness is -1.05 ± 0.26. With V7C, the abundance fitness is -0.293 ± 0.2. As to V7E, the abundance fitness was -0.999 ± 0.37. As to V7A, the abundance fitness is -0.03 ± 0.076. Still for that read-out and setting: the figure for V7G is -1.24 ± 0.32. On to V7Q, for which the abundance fitness was 0.1 ± 0.16. Same read-out and setting: to V7M belongs -0.884 ± 0.24; to V7L, -0.542 ± 0.14; to R3Q, -0.963 ± 0.31.

On to R3E, for which the abundance fitness was -0.401 ± 0.41. In the case of R3V, the abundance fitness is -0.316 ± 0.076. Consider R3G, for which the abundance fitness was -0.21 ± 0.065. Take R3D: the abundance fitness is -0.283 ± 0.13. Regarding R3F, the abundance fitness is -0.451 ± 0.1. Turning to R3S, the abundance fitness is -0.364 ± 0.061.

As to R3Y, the abundance fitness was -0.58 ± 0.11.
